In assay [1] the test system is SARS-CoV-2 pseudoviruses. It is filed as cell-based.
Assay [2] has as its system SARS-CoV-1 pseudoviruses. The assay is classed as cell-based.
Assay [3] has as its system HIV-1 pseudovirus. The assay is classed as cell-based.
For assay [4], the system named is SARS-CoV-2 pseudoviruses.
Assay [5] deals with SARS-CoV-1 pseudoviruses.
In assay [6] the test system is HIV-1 pseudovirus.
Assay [7] has as its system SARS-CoV-2 pseudoviruses. It is filed as cell-based. The source holds these as a separate data set.
For assay [8], the system named is SARS-CoV-1 pseudoviruses. It is filed as cell-based. The source holds these as a separate data set.
The target of assay [9] is SARS-CoV-2 spike S1 subunit (Severe acute respiratory syndrome coronavirus 2, UniProt P0DTC2).
Assay [10] has as its target SARS-CoV-2 spike S2 subunit (Severe acute respiratory syndrome coronavirus 2, UniProt P0DTC2).
A further assay has as its target gp120 (Human immunodeficiency virus type 1 group M subtype B, UniProt P35961). The following applies: SPR.
Assay [11] addresses receptor binding domain (RBD) (Severe acute respiratory syndrome coronavirus 2, UniProt P0DTC2).

The source of these data is patent US20230355708A1 (priority 2020, published 2023).

Substitutions are numbered along the chain they refer to. Names and notes keep the numbering of the source. “Also recorded” adds a separate entry of the source.

B1: CVN: lectin cyanovirin-N, SEQ ID NO:1 (protein)
chain: LGKFSQTCYNSAIQGSVLTSTCERTNGGYNTSSIDLNSVIENVDGSLKWQPSNFIETCRNTQLAGSSELAAECKTRAQQFVSTKINLDDHIANIDGTLKYE
With B1, in the assay on SARS-CoV-2 pseudoviruses [1], the “inhibition of SARS-CoV-2 pseudovirus infection” value is “inhibited infection at nanomolar potencies”. Further, the “inhibition of SARS-CoV-1 pseudovirus infection” value with SARS-CoV-1 pseudoviruses [2] is listed as “inhibition”. Also, in the assay with HIV-1 pseudovirus [3], the “inhibition of HIV-1 infection” value was “inhibition”. For the same molecule, the “virolysis of SARS-CoV-2 pseudoviruses” value with SARS-CoV-2 pseudoviruses [4] is reported as “more potent than CVN-DLI; also recorded: capable of causing cell-free virolysis”. In addition, the “virolysis of SARS-CoV-1 pseudoviruses” value in the assay on SARS-CoV-1 pseudoviruses [5] is “no virolytic effect”. Further, the “virolysis of HIV-1” value in the assay on HIV-1 pseudovirus [6] is “no virolytic effect”. In addition, in the assay with Env Neg pseudovirus, the “virolysis of Env Neg pseudovirus” value is on record as “no virolytic effect”. In addition, the “irreversible inactivation of SARS-CoV-2” value in the assay on SARS-CoV-2 pseudoviruses [7] is on record as “irreversible inactivation”. Further, the “irreversible inactivation of SARS-CoV-1” value in the assay on SARS-CoV-1 pseudoviruses [8] was “irreversible inactivation”. For the same molecule, the “binding of S1 to lectin” value in assay [9] was “Relatively lower binding”. In assay [10], the “stability of lectin-S2 complexes” value is listed as “very stable” and the “stoichiometry of binding, S2 versus S1” value was “higher to the S2 subunit”. For the same molecule, in the assay with gp120, the “binding to gp120” value is recorded as “occurred”. The “binding to receptor binding domain (RBD)” value in [11] is on record as “no binding”.

B2: P51G-CVN: mutant CVN wherein Pro 51 is mutated to Gly, SEQ ID NO:3 (protein)
chain: B1 chain with P51G
Turning to B2, in the assay with SARS-CoV-2 pseudoviruses [1], the “inhibition of SARS-CoV-2 pseudovirus infection” value is “decreased inhibition of infection”. Moreover, the “virolysis of SARS-CoV-2 pseudoviruses” value in the assay on SARS-CoV-2 pseudoviruses [4] is “reduced virolysis”. Also, the “binding to S1 subunit” value in assay [9] was “reduced affinity as compared to CVN”. In addition, the “binding to S2 subunit” value in assay [10] is on record as “reduced affinity as compared to CVN”.
